# T1: Lag3 (NCBI Reference Sequence: NP_002277.4) on Lag3-CHO cells (UniProt P18627 23-525, limits assumed)
# T1 construct: whole, on cells
# T1 sequence (looked up): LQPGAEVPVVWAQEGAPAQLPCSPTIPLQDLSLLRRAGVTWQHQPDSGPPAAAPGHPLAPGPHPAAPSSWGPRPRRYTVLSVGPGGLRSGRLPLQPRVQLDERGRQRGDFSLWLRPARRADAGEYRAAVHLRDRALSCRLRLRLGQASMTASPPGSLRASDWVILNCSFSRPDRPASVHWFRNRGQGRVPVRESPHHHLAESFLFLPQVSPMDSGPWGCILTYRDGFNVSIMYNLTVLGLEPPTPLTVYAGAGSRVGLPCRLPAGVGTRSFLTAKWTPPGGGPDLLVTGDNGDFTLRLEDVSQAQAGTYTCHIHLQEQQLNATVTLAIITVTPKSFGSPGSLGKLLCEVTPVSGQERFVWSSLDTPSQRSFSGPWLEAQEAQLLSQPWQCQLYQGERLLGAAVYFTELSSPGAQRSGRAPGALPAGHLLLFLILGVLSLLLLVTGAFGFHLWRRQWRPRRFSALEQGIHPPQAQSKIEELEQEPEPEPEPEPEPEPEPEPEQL
# T2: B7-H3 on MDA-MB-468 cells (human, UniProt Q5ZPR3)
# T2 construct: endogenous, on the cell surface
# T2 sequence (cell surface antigen, looked up): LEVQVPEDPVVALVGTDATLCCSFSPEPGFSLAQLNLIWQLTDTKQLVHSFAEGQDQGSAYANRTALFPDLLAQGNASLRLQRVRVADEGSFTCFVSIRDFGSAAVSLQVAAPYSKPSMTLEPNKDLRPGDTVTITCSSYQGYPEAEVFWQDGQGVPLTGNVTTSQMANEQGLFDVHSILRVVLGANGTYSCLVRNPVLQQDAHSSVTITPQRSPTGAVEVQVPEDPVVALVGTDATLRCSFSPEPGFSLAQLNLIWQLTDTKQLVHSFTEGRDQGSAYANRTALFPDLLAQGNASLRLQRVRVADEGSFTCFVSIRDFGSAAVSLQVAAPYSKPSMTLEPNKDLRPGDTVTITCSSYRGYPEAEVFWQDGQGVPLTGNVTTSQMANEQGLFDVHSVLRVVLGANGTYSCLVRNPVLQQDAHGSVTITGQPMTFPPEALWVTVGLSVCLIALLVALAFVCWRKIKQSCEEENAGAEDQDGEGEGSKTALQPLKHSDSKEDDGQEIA
# Assays:
# [1] = molecular target: T1, Lag3 (NCBI Reference Sequence: …); assay: flow cytometry on Lag3-CHO cells
# [2] = molecular target: T3, Tim3 (NCBI Reference Sequence: NP_116171.3) on Tim3-CHO cells (UniProt Q8TDQ0 22-301, limits assumed); assay: flow cytometry on Tim3-CHO cells
# T3 construct: whole, on cells
# [3] = molecular target: T4, VISTA (NCBI Reference Sequence: NP_071436.1) on VISTA-CHO cells (UniProt Q9H7M9 33-311, limits assumed); assay: flow cytometry on VISTA-CHO cells
# T4 construct: whole, on cells
# [4] = molecular target: T2, B7-H3 on MDA-MB-468 cells; assay: flow cytometry on MDA-MB-468 cells; blank V2-R 0.9%
# [5] = molecular target: T1, Lag3 (NCBI Reference Sequence: …); assay: flow cytometry on Lag3-CHO cells; blank P3 0.5%; the filing says V1-V5 did not bind
# [6] = molecular target: T3, Tim3 (NCBI Reference Sequence: …); assay: flow cytometry on Tim3-CHO cells; blank P3 0.2%; the filing says V1-V5 did not bind
# [7] = molecular target: T4, VISTA (NCBI Reference Sequence: …); assay: flow cytometry on VISTA-CHO cells; blank P3 0.1%; the filing says V1-V5 did not bind
# hB7-H3-Fc = molecular target: T5, hB7-H3-Fc; assay: ELISA on coated hB7-H3-Fc (2 ug/mL), HRP anti-human kappa secondary, A450, antibody from 300 nM in 3-fold dilutions; axis 'Concentration' has no unit, nM from p-1066
# T5 construct: also called antigen hB7-H3-Fc
# T5 sequence (fusion chain, as listed by the source limits assumed): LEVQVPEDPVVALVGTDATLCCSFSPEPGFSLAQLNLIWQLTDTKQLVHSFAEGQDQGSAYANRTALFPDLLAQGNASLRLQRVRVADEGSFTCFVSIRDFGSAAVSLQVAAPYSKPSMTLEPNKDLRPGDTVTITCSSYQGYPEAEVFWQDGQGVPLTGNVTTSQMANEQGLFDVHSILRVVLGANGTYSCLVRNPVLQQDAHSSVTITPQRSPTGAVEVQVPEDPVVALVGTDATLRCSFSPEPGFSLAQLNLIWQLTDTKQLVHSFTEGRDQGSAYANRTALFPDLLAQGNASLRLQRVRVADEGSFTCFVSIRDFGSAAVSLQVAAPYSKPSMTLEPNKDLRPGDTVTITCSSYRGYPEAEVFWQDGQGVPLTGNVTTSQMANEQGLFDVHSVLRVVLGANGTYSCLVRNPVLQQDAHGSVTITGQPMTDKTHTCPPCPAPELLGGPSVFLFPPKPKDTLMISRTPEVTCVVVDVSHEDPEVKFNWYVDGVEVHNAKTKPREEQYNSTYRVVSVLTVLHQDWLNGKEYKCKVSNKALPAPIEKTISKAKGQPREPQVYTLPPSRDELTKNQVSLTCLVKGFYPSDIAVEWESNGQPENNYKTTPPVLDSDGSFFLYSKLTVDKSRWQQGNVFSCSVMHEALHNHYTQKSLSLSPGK
Binder,binding result [1],binding result [2],binding result [3],% of cells in gate V1-R at 0.411 nM [4] [%],% of cells in gate V1-R at 1.23 nM [4] [%],% of cells in gate V1-R at 3.7 nM [4] [%],% of cells in gate V1-R at 11.11 nM [4] [%],% of cells in gate V1-R at 33.33 nM [4] [%],% of cells in gate V1-R at 100 nM [4] [%],% of cells in gate P3 at 100 nM [5] [%],% of cells in gate P3 at 100 nM [6] [%],% of cells in gate P3 at 100 nM [7] [%],EC50 (hB7-H3-Fc) [nM]
"Antibody V5 (antibody, human IgG1, kappa, V domains shown, Humanized from chimeric antibody M1; also called humanized antibody V5) VH: QVQLVQSGAEVKKPGASVKVSCKASGYTFTDYDINWVRQAPGQRLEWIGWIFPGDDTTKYNEKFKGRATLTADKSASTAYMELSSLRSEDTAVYYCARSPSFDYWGQGTLVTVSS VL: QIVLTQSPSSLSASVGDRVTITCSASSTIGFMYWYQQKPGKAPKRWIYDTSKLASGVPSRFSVSGSGTDYTLTISSLQPEDFATYYCHQRSSYPTFGQGTKVEIKR",no binding (tested: 100 nM),no binding (tested: 100 nM),no binding (tested: 100 nM),31.6,73.5,92.6,99.3,99.6,99.7,0.4,0.1,0.2,8.24
"Antibody V2 (antibody, human IgG1, kappa, V domains shown, Humanized from chimeric antibody M1; also called humanized antibody V2) VH: EVQLVQSGAEVKKSGESLKISCKASGYTFTDYDINWVRQMPGKGLEWIGWIFPGDDTTKYNEKFKGQVTLSADKSTNTAYMQWSSLKASDTAMYYCARSPSFDYWGQGTLVTVSS VL: QIVLTQSPGTLSLSPGERATLSCSASSTIGFMYWYQQKPGQAPRRWIYDTSKLASGVPDRFSVSGSGTDYTLTISRLEPEDFAVYYCHQRSSYPTFGQGTKVEIKR",no binding (tested: 100 nM),no binding (tested: 100 nM),no binding (tested: 100 nM),1.2,1.3,60.1,97.8,99.7,99.4,5.6,1.8,1.8,2.66
"Antibody V1 (antibody, human IgG1, kappa, V domains shown, Humanized from chimeric antibody M1; also called humanized antibody V1) VH: EVQLVQSGAEVKKSGESLKISCKASGYTFTDYDINWVRQMPGKGLEWMGWIFPGDDTTKYNEKFKGQVTISADKSTNTAYLQWSSLKASDTAMYYCARSPSFDYWGQGTLVTVSS VL: QIVLTQSPGTLSLSPGERATLSCSASSTIGFMYWYQQKPGQAPRRWIYDTSKLASGVPDRFSVSGSGTDYTLTISRLEPEDFAVYYCHQRSSYPTFGQGTKVEIKR",no binding (tested: 100 nM),no binding (tested: 100 nM),no binding (tested: 100 nM),1.4,8.6,92.7,99.5,99.6,99.7,3.2,1.7,0.9,3.95

# Reference: US20250262316A1 (BIO THERA SOLUTIONS, published 2025)
